# B1: Oxysterol-binding protein-related protein 1 (Homo sapiens), Q9BXW6 (parent)
# chain: MNTEAEQQLLHHARNGNAEEVRQLLETMARNEVIADINCKGRSKSNLGWTPLHLACYFGHRQVVQDLLKAGAEVNVLNDMGDTPLHRAAFTGRKELVMLLLEYNADTTIVNGSGQTAKEVTHAEEIRSMLEAVERTQQRKLEELLLAAAREGKTTELTALLNRPNPPDVNCSDQLGNTPLHCAAYRAHKQCALKLLRSGADPNLKNKNDQKPLDLAQGAEMKHILVGNKVIYKALKRYEGPLWKSSRFFGWRLFWVVLEHGVLSWYRKQPDAVHNIYRQGCKHLTQAVCTVKSTDSCLFFIKCFDDTIHGFRVPKNSLQQSREDWLEAIEEHSAYSTHYCSQDQLTDEEEEDTVSAADLKKSLEKAQSCQQRLDREISNFLKMIKECDMAKEMLPSFLQKVEVVSEASRETCVALTDCLNLFTKQEGVRNFKLEQEQEKNKILSEALETLATEHHELEQSLVKGSPPASILSEDEFYDALSDSESERSLSRLEAVTARSFEEEGEHLGSRKHRMSEEKDCGGGDALSNGIKKHRTSLPSPMFSRNDFSIWSILRKCIGMELSKITMPVIFNEPLSFLQRLTEYMEHTYLIHKASSLSDPVERMQCVAAFAVSAVASQWERTGKPFNPLLGETYELVRDDLGFRLISEQVSHHPPISAFHAEGLNNDFIFHGSIYPKLKFWGKSVEAEPKGTITLELLEHNEAYTWTNPTCCVHNIIVGKLWIEQYGNVEIINHKTGDKCVLNFKPCGLFGKELHKVEGYIQDKSKKKLCALYGKWTECLYSVDPATFDAYKKNDKKNTEEKKNSKQMSTSEELDEMPVPDSESVFIIPGSVLLWRIAPRPPNSAQMYNFTSFAMVLNEVDKDMESVIPKTDCRLRPDIRAMENGEIDQASEEKKRLEEKQRAARKNRSKSEEDWKTRWFHQGPNPYNGAQDWIYSGSYWDRNYFNLPDIY
# Variants of: B1
# Conditions: with rab7a_human RAB7A
row,effect of a mutation on the interaction,Variant
1,disrupting interaction strength,F58E

# Reference: IntAct's records for PubMed 30721249
